Response data for 7 variants are collected here from publication PMC10746227.

The chains are these.
B1: WalR-SmBIT (native WalR) [S. aureus] / WalK-LgBIT (native WalK) [S. aureus] (parent)
chain 1: MARKVVVVDDEKPIADILEFNLKKEGYDVYCAYDGNDAVDLIYEEEPDIVLLDIMLPGRDGMEVCREVRKKYEMPIIMLTAKDSEIDKVLGLELGADDYVTKPFSTRELIARVKANLRRHYSQPAQDTGNVTNEITIKDIVIYPDAYSIKKRGEDIELTHREFELFHYLSKHMGQVMTREHLLQTVWGYDYFGDVRTVDVTIRRLREKIEDDPSHPEYIVTRRGVGYFLQQHE
chain 2: MKWLKQLQSLHTKLVIVYVLLIIIGMQIIGLYFTNNLEKELLDNFKKNITQYAKQLEISIEKVYDEKGSVNAQKDIQNLLSEYANRQEIGEIRFIDKDQIIIATTKQSNRSLINQKANDSSVQKALSLGQSNDHLILKDYGGGKDRVWVYNIPVKVDKKVIGNIYIESKINDVYNQLNNINQIFIVGTAISLLITVILGFFIARTITKPITDMRNQTVEMSRGNYTQRVKIYGNDEIGELALAFNNLSKRVQEAQANTESEKRRLDSVITHMSDGIIATDRRGRIRIVNDMALKMLGMAKEDIIGYYMLSVLSLEDEFKLEEIQENNDSFLLDLNEEEGLIARVNFSTIVQETGFVTGYIAVLHDVTEQQQVERERREFVANVSHELRTPLTSMNSYIEALEEGAWKDEELAPQFLSVTREETERMIRLVNDLLQLSKMDNESDQINKEIIDFNMFINKIINRHEMSAKDTTFIRDIPKKTIFTEFDPDKMTQVFDNVITNAMKYSRGDKRVEFHVKQNPLYNRMTIRIKDNGIGIPINKVDKIFDRFYRVDKARTRKMGGTGLGLAISKEIVEAHNGRIWANSVEGQGTSIFITLPCEVIEDGDWDE

The first experiment covers variants of B1. Briefly: split luciferase (SmBIT/LgBIT) interaction assay in S. aureus. The conditions noted are these: with WalK-LgBIT (native WalK) [S. aureus]; maximum of the RLU curve, mutant peak at about 170 min, Wt peak at about 120 min; growth in LB in NRS384 Wt; sub-panel labelled D53A/T101A; parent: 8e+03; read off a plot.
Regarding chain 1 D53A T101A, the response is 8000 RLU.

Still in this experiment, the particulars now being: with WalR-SmBIT (native WalR) [S. aureus]; maximum of the RLU curve, mutant peak at about 170 min, Wt peak at about 120 min; growth in LB in NRS384 Wt; sub-panel labelled H385A; parent: 8e+03; read off a plot.
For the variant chain 2 H385A, the response turned out to be 20000 RLU.

The same experiment, now with this note: with WalR-SmBIT (native WalR) [S. aureus]; maximum of the RLU curve, mutant peak at about 165 min, Wt peak at about 120 min; growth in LB in NRS384 Wt; sub-panel labelled G223D; parent: 8e+03; read off a plot.
Take chain 2 G223D: the response amounted to 19000 RLU.

Still in this experiment, the particulars now being: with WalR-SmBIT (native WalR) [S. aureus]; maximum of the RLU curve, mutant peak at about 125 min, Wt peak at about 120 min; growth in LB in NRS384 Wt; sub-panel labelled T389A; parent: 8e+03; read off a plot.
For the variant chain 2 T389A, the response came out at 60000 RLU.

Staying with this experiment, now noted: with WalK-LgBIT (native WalK) [S. aureus]; maximum of the RLU curve, mutant peak at about 140 min, Wt peak at about 125 min; growth in LB in NRS384 Wt; sub-panel labelled D53E; parent: 8e+03; read off a plot.
In the case of chain 1 D53E, the response is 150000 RLU.

The experiment is the same for the next values; noted with them: with WalK-LgBIT (native WalK) [S. aureus]; maximum of the RLU curve, mutant peak at about 140 min, Wt peak at about 125 min; growth in LB in NRS384 Wt; sub-panel labelled D53A; parent: 8.5e+03; read off a plot.
With chain 1 D53A, the response was 17000 RLU.

Staying with this experiment, now noted: with WalR-SmBIT (native WalR) [S. aureus]; maximum of the RLU curve, mutant peak at about 110 min, Wt peak at about 130 min; growth in LB in NRS384 Wt; sub-panel labelled Y32C; parent: 1.8e+04; read off a plot.
For chain 2 Y32C, the response was 55000 RLU.
